We go through six molecules from patent publication US20120270784A1 (THERATECHNOLOGIES, published 2012).

First the molecules themselves.
T1: human GRF receptor (human, UniProt Q02643 23-423)
T1 sequence (looked up): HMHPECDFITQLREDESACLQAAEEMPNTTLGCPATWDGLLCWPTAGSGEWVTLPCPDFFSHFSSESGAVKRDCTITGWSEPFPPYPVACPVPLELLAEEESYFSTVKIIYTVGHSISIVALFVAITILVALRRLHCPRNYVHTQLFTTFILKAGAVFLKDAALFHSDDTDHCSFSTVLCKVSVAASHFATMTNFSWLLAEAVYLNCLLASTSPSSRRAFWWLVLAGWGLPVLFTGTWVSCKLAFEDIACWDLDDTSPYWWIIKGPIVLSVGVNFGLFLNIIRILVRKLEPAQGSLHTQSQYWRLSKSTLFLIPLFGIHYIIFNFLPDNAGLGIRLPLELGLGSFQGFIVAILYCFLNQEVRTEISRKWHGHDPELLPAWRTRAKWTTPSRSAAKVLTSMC

B1: YGDAIFTDSYRKVLAQLKARQDILARAARAAR-HoSer-NH2 (SEQ ID NO: 36) (peptide)
peptide: YGDAIFTDSYRKVLAQLKARQDILARAARAARX
HELM: PEPTIDE1{Y.G.D.A.I.F.T.D.S.Y.R.K.V.L.A.Q.L.K.A.R.Q.D.I.L.A.R.A.A.R.A.A.R.[O=C([C@H](CCO)N[*:1])[*:2]].[am]}$$$$V2.0; N-terminus assumed
SMILES: CC[C@H](C)[C@H](NC(=O)[C@H](C)NC(=O)[C@H](CC(=O)O)NC(=O)CNC(=O)[C@@H](N)Cc1ccc(O)cc1)C(=O)N[C@@H](Cc1ccccc1)C(=O)N[C@H](C(=O)N[C@@H](CC(=O)O)C(=O)N[C@@H](CO)C(=O)N[C@@H](Cc1ccc(O)cc1)C(=O)N[C@@H](CCCNC(=N)N)C(=O)N[C@@H](CCCCN)C(=O)N[C@H](C(=O)N[C@@H](CC(C)C)C(=O)N[C@@H](C)C(=O)N[C@@H](CCC(N)=O)C(=O)N[C@@H](CC(C)C)C(=O)N[C@@H](CCCCN)C(=O)N[C@@H](C)C(=O)N[C@@H](CCCNC(=N)N)C(=O)N[C@@H](CCC(N)=O)C(=O)N[C@@H](CC(=O)O)C(=O)N[C@H](C(=O)N[C@@H](CC(C)C)C(=O)N[C@@H](C)C(=O)N[C@@H](CCCNC(=N)N)C(=O)N[C@@H](C)C(=O)N[C@@H](C)C(=O)N[C@@H](CCCNC(=N)N)C(=O)N[C@@H](C)C(=O)N[C@@H](C)C(=O)N[C@@H](CCCNC(=N)N)C(=O)N[C@@H](CCO)C(N)=O)[C@@H](C)CC)C(C)C)[C@@H](C)O
B2: Y-a-DAIFTDSYRKVLAQLKARQDILARAARAAR-HoSer-NH2 (SEQ ID NO: 37) (peptide)
peptide: YXDAIFTDSYRKVLAQLKARQDILARAARAARX
HELM: PEPTIDE1{Y.[dA].D.A.I.F.T.D.S.Y.R.K.V.L.A.Q.L.K.A.R.Q.D.I.L.A.R.A.A.R.A.A.R.[O=C([C@H](CCO)N[*:1])[*:2]].[am]}$$$$V2.0; N-terminus assumed
SMILES: CC[C@H](C)[C@H](NC(=O)[C@H](C)NC(=O)[C@H](CC(=O)O)NC(=O)[C@@H](C)NC(=O)[C@@H](N)Cc1ccc(O)cc1)C(=O)N[C@@H](Cc1ccccc1)C(=O)N[C@H](C(=O)N[C@@H](CC(=O)O)C(=O)N[C@@H](CO)C(=O)N[C@@H](Cc1ccc(O)cc1)C(=O)N[C@@H](CCCNC(=N)N)C(=O)N[C@@H](CCCCN)C(=O)N[C@H](C(=O)N[C@@H](CC(C)C)C(=O)N[C@@H](C)C(=O)N[C@@H](CCC(N)=O)C(=O)N[C@@H](CC(C)C)C(=O)N[C@@H](CCCCN)C(=O)N[C@@H](C)C(=O)N[C@@H](CCCNC(=N)N)C(=O)N[C@@H](CCC(N)=O)C(=O)N[C@@H](CC(=O)O)C(=O)N[C@H](C(=O)N[C@@H](CC(C)C)C(=O)N[C@@H](C)C(=O)N[C@@H](CCCNC(=N)N)C(=O)N[C@@H](C)C(=O)N[C@@H](C)C(=O)N[C@@H](CCCNC(=N)N)C(=O)N[C@@H](C)C(=O)N[C@@H](C)C(=O)N[C@@H](CCCNC(=N)N)C(=O)N[C@@H](CCO)C(N)=O)[C@@H](C)CC)C(C)C)[C@@H](C)O
B3: Trans-3-hexenoyl-YADAIFTDSYRKVLAQLSARQDILS-r-NH2 (SEQ ID NO: 46) (peptide)
peptide: YADAIFTDSYRKVLAQLSARQDILSX
HELM: PEPTIDE1{[CC/C=C/CC(=O)[*:2]].Y.A.D.A.I.F.T.D.S.Y.R.K.V.L.A.Q.L.S.A.R.Q.D.I.L.S.[dR].[am]}$$$$V2.0
SMILES: CC/C=C/CC(=O)N[C@@H](Cc1ccc(O)cc1)C(=O)N[C@@H](C)C(=O)N[C@@H](CC(=O)O)C(=O)N[C@@H](C)C(=O)N[C@H](C(=O)N[C@@H](Cc1ccccc1)C(=O)N[C@H](C(=O)N[C@@H](CC(=O)O)C(=O)N[C@@H](CO)C(=O)N[C@@H](Cc1ccc(O)cc1)C(=O)N[C@@H](CCCNC(=N)N)C(=O)N[C@@H](CCCCN)C(=O)N[C@H](C(=O)N[C@@H](CC(C)C)C(=O)N[C@@H](C)C(=O)N[C@@H](CCC(N)=O)C(=O)N[C@@H](CC(C)C)C(=O)N[C@@H](CO)C(=O)N[C@@H](C)C(=O)N[C@@H](CCCNC(=N)N)C(=O)N[C@@H](CCC(N)=O)C(=O)N[C@@H](CC(=O)O)C(=O)N[C@H](C(=O)N[C@@H](CC(C)C)C(=O)N[C@@H](CO)C(=O)N[C@H](CCCNC(=N)N)C(N)=O)[C@@H](C)CC)C(C)C)[C@@H](C)O)[C@@H](C)CC
B4: Trans-3-hexenoyl-YADAIFTDSYRKVLAQLSARQDIMSR-NH2 (SEQ ID NO: 44) (peptide)
peptide: YADAIFTDSYRKVLAQLSARQDIMSR
HELM: PEPTIDE1{[CC/C=C/CC(=O)[*:2]].Y.A.D.A.I.F.T.D.S.Y.R.K.V.L.A.Q.L.S.A.R.Q.D.I.M.S.R.[am]}$$$$V2.0
SMILES: CC/C=C/CC(=O)N[C@@H](Cc1ccc(O)cc1)C(=O)N[C@@H](C)C(=O)N[C@@H](CC(=O)O)C(=O)N[C@@H](C)C(=O)N[C@H](C(=O)N[C@@H](Cc1ccccc1)C(=O)N[C@H](C(=O)N[C@@H](CC(=O)O)C(=O)N[C@@H](CO)C(=O)N[C@@H](Cc1ccc(O)cc1)C(=O)N[C@@H](CCCNC(=N)N)C(=O)N[C@@H](CCCCN)C(=O)N[C@H](C(=O)N[C@@H](CC(C)C)C(=O)N[C@@H](C)C(=O)N[C@@H](CCC(N)=O)C(=O)N[C@@H](CC(C)C)C(=O)N[C@@H](CO)C(=O)N[C@@H](C)C(=O)N[C@@H](CCCNC(=N)N)C(=O)N[C@@H](CCC(N)=O)C(=O)N[C@@H](CC(=O)O)C(=O)N[C@H](C(=O)N[C@@H](CCSC)C(=O)N[C@@H](CO)C(=O)N[C@@H](CCCNC(=N)N)C(N)=O)[C@@H](C)CC)C(C)C)[C@@H](C)O)[C@@H](C)CC
B5: Trans-3-hexenoyl-YADAIFTDSYRKVLAQLSARQDILAR-NH2 (SEQ ID NO: 45) (peptide)
peptide: YADAIFTDSYRKVLAQLSARQDILAR
HELM: PEPTIDE1{[CC/C=C/CC(=O)[*:2]].Y.A.D.A.I.F.T.D.S.Y.R.K.V.L.A.Q.L.S.A.R.Q.D.I.L.A.R.[am]}$$$$V2.0
SMILES: CC/C=C/CC(=O)N[C@@H](Cc1ccc(O)cc1)C(=O)N[C@@H](C)C(=O)N[C@@H](CC(=O)O)C(=O)N[C@@H](C)C(=O)N[C@H](C(=O)N[C@@H](Cc1ccccc1)C(=O)N[C@H](C(=O)N[C@@H](CC(=O)O)C(=O)N[C@@H](CO)C(=O)N[C@@H](Cc1ccc(O)cc1)C(=O)N[C@@H](CCCNC(=N)N)C(=O)N[C@@H](CCCCN)C(=O)N[C@H](C(=O)N[C@@H](CC(C)C)C(=O)N[C@@H](C)C(=O)N[C@@H](CCC(N)=O)C(=O)N[C@@H](CC(C)C)C(=O)N[C@@H](CO)C(=O)N[C@@H](C)C(=O)N[C@@H](CCCNC(=N)N)C(=O)N[C@@H](CCC(N)=O)C(=O)N[C@@H](CC(=O)O)C(=O)N[C@H](C(=O)N[C@@H](CC(C)C)C(=O)N[C@@H](C)C(=O)N[C@@H](CCCNC(=N)N)C(N)=O)[C@@H](C)CC)C(C)C)[C@@H](C)O)[C@@H](C)CC

Where no end group is shown, it is not given here.

This experiment concerns the target T1, human GRF receptor. The experiment is described as follows: cell-based or functional assay.
As for B1, the “EC50 as assessed by alkaline phosphatase (AP) induction” value (“EC50 as assessed” for short) came to 0.2 nM.

Take B2: the “EC50 as assessed” value came out at 0.2 nM.

Consider B3, for which the “EC50 as assessed” value came out at 15.1 nM.

For B4, the “EC50 as assessed” value was determined as 9.73 nM.

Turning to B5, the “EC50 as assessed” value came out at 7.55 nM.

With YLDAIFTDSYRKVLAQLKARQDILARAARAAR-NH2 [YLDAIFTDSYRKVLAQLKARQDILARAARAAR-NH2 (SEQ ID NO: 35)], the “EC50 as assessed” value amounted to 2.52 nM.
